# According to US20230035659A1, “Compositions and Methods for TTR Gene Editing and Treating ATTR Amyloidosis Comprising a Corticosteroid or Use Thereof” (Intellia Therapeutics, Inc., priority 2019, published 2023):
# Strand notation (5' to 3'): a small letter for the sugar, then the base; units joined by * are phosphorothioate-linked, units joined directly phosphodiester-linked; [ ] holds rarer units or linkages, { } end groups; capitals alone tell only the bases. m = 2'-O-methyl; r = 2'-OH (RNA)
# B1: G000480: TTR sgRNA modified sequence, Human, SEQ ID NO: 87; guide sequence of CR003353 (nucleic acid)
# guide: mA*mA*mA*rGrGrCrUrGrCrUrGrArUrGrArCrArCrCrUrGrUrUrUrUrArGrAmGmCmUmAmGmAmAmAmUmAmGmCrArArGrUrUrArArArArUrArArGrGrCrUrArGrUrCrCrGrUrUrArUrCrAmAmCmUmUmGmAmAmAmAmAmGmUmGmGmCmAmCmCmGmAmGmUmCmGmGmUmGmCmU*mU*mU*mU
# B2: G000486: TTR sgRNA modified sequence, Human, SEQ ID NO: 93; guide sequence of CR003339 (nucleic acid)
# guide: mA*mC*mA*rCrArArArUrArCrCrArGrUrCrCrArGrCrArGrUrUrUrUrArGrAmGmCmUmAmGmAmAmAmUmAmGmCrArArGrUrUrArArArArUrArArGrGrCrUrArGrUrCrCrGrUrUrArUrCrAmAmCmUmUmGmAmAmAmAmAmGmUmGmGmCmAmCmCmGmAmGmUmCmGmGmUmGmCmU*mU*mU*mU
# B3: G000494: TTR sgRNA modified sequence, Human, SEQ ID NO: 101; guide sequence of CR003360 (nucleic acid)
# guide: mG*mU*mG*rArGrUrCrUrGrGrArGrArGrCrUrGrCrArUrGrUrUrUrUrArGrAmGmCmUmAmGmAmAmAmUmAmGmCrArArGrUrUrArArArArUrArArGrGrCrUrArGrUrCrCrGrUrUrArUrCrAmAmCmUmUmGmAmAmAmAmAmGmUmGmGmCmAmCmCmGmAmGmUmCmGmGmUmGmCmU*mU*mU*mU
# B4: G000499: TTR sgRNA modified sequence, Human, SEQ ID NO: 106; guide sequence of CR005303 (nucleic acid)
# guide: mU*mG*mA*rArUrCrCrArArGrUrGrUrCrCrUrCrUrGrArGrUrUrUrUrArGrAmGmCmUmAmGmAmAmAmUmAmGmCrArArGrUrUrArArArArUrArArGrGrCrUrArGrUrCrCrGrUrUrArUrCrAmAmCmUmUmGmAmAmAmAmAmGmUmGmGmCmAmCmCmGmAmGmUmCmGmGmUmGmCmU*mU*mU*mU
# What was measured:
# [1] = system: TTR on-target site and potential off-target sites; assay: Targeted amplicon sequencing of on-target and potential off-target sites in primary human hepatocytes treated with LNPs; type: cell-based; conditions: PHH; for highest concentration (of gRNA) at which the potential off-target sites were no longer detected: LNP 11 point dose response 0.001-46.55 nM gRNA; for indel rate observed at the on-target site / number of potential off-target sites identified by the oligo insertion assay at which indels were detected (low levels) / indels at the in silico predicted off-target sites: LNP with 100 ng Cas9 mRNA (SEQ ID NO: 1); for indel rate observed at the on-target site: near-saturating dose of LNP; for number of potential off-target sites identified by the oligo insertion assay at which indels were detected (low levels): near-saturating dose; for number of potential off-target sites identified by the oligo insertion assay at which indels were detected (low levels) / indels at the in silico predicted off-target sites / Indel Frequency, On-Target site: targeted amplicon sequencing; for on-target indel rate at the highest gRNA concentration without detected off-target sites: LNP, 0.57 nM (G000480) and 15.51 nM (G000486) gRNA
# Description: The HEK293_Cas9 cells used in Example 5 for detecting potential off-targets constitutively overexpress Cas9, leading to a higher number of potential off-target “hits” as compared to a transient delivery paradigm in various cell types. […] Accordingly, potential off-target sites identified by an oligo insertion method as used in Example 5 may be validated using targeted sequencing of the identified potential off-target sites.
# In one approach, primary hepatocytes are treated with LNPs comprising Cas9 mRNA and a sgRNA of interest (e.g., a sgRNA having potential off-target sites for evaluation). The primary hepatocytes are then lysed and primers flanking the potential off-target site(s) are used to generate an amplicon for NGS analysis. Identification of indels at a certain level may validate potential off-target site, whereas the lack of indels found at the potential off-target site may indicate a false positive in the HEK293_Cas9 cell assay.
# Following the identification of potential off-target sites in […] via the oligo insertion assay, certain potential sites were further evaluated by targeted amplicon sequencing, e.g., as described in Example 6. In addition to the potential off-target sites identified by the oligo insertion strategy, additional potential off-target sites identified by in silico prediction were included in the analysis.
# To this end, PHH were treated with LNPs comprising 100 ng of Cas9 mRNA (SEQ ID NO:1) and the gRNA of interest at 14.68 nM (in a 1:1 ratio by weight), as described in Example 4. The LNPs were prepared using the cross-flow procedure described above and purified and concentrated using PD-10 columns and Amicon centrifugal filter units, respectively. The LNPs were formulated with an N:P ratio of 6.0 and contained Lipid A, Cholesterol, DSPC, and PEG2k-DMG in a 50:38:9:2 molar ratio, respectively. Following LNP treatment, isolated genomic DNA was analyzed by NGS (e.g., as described in Examples 1 and 6) to determine whether indels could be detected at the potential off-target site, which would be indicative of a Cas9-mediated cleavage event. Tables 33 and 34 show the potential off-target sites that were evaluated for the gRNAs G000480 and G000486, respectively.
# As shown in FIGS. 21A-B and 22A-B and Table 35 below, indels were detected at low levels for only two of the potential off-target sites identified by the oligo insertion assay for G000480, and only one for G000486. […] Further, indels were only detected at these sites using a near-saturating dose of LNP, as the indel rates observed at the on-target sites for G000480 and G000486 were ˜97% and ˜91%, respectively (See Table 35).
# A dose response assay was then performed in order to determine the highest dose of LNP in which no off-targets were detected. PHH were treated with LNPs comprising either G000480 or G000486 as described in Example 4. The doses ranged across 11 points with respect to gRNA concentration (0.001 nM, 0.002 nM, 0.007 nM, 0.02 nM, 0.06 nM, 0.19 nM, 0.57 nM, 1.72 nM, 5.17 nM, 15.51 nM, and 46.55 nM).
# [2] = system: human TTR sequence; assay: Liver editing (NGS) after LNP dosing of mice humanized with respect to the TTR gene; type: in vivo, mouse; conditions: LNP Formulation Numbers 1-5, 2 mg/kg total RNA, Cas9 mRNA SEQ ID NO: 2, 1:1 to guide
# Description: Unless otherwise noted, CD-1 female mice, ranging from 6-10 weeks of age were used in each study. Animals were weighed and grouped according to body weight for preparing dosing solutions based on group average weight. LNPs were dosed via the lateral tail vein in a volume of 0.2 mL per animal (approximately 10 mL per kilogram body weight). […] Body weight was measured at twenty-four hours post-administration, and animals were euthanized at various time points by exsanguination via cardiac puncture under isoflourane anesthesia. Blood was collected into serum separator tubes or into tubes containing buffered sodium citrate for plasma as described herein. […]
# Additional PCR was performed per the manufacturer's protocols (Illumina) to add chemistry for sequencing. […] The reads were aligned to a reference genome (e.g., the human reference genome (hg38), the cynomologus reference genome (mf5), the rat reference genome (rn6), or the mouse reference genome (mm10)) after eliminating those having low quality scores. The resulting files containing the reads were mapped to the reference genome (BAM files), where reads that overlapped the target region of interest were selected and the number of wild type reads versus the number of reads which contain an insertion, substitution, or deletion was calculated. […]
# [3] = LNP with 100 ng Cas9 mRNA and 14.68 nM gRNA
Molecule,highest concentration (of gRNA) at which the potential off-target sites were no longer detected [1],indel rate observed at the on-target site [1],number of potential off-target sites identified by the oligo insertion assay at which indels were detected (low levels) [1],indels at the in silico predicted off-target sites [1],"Indel Frequency, Off-Target site INS-OT.2 ([1]; LNP with 100 ng Cas9 mRNA and 14.68 nM gRNA, G000480 site INS-OT.2 (chr2: 192658562-192658582))","Indel Frequency, Off-Target site INS-OT.4 (of G000480) ([1]; LNP with 100 ng Cas9 mRNA and 14.68 nM gRNA, G000480 site INS-OT.4 (chr20: 9216118-9216138))","Indel Frequency, On-Target site [1, 3]",on-target indel rate at the highest gRNA concentration without detected off-target sites [1],"Indel Frequency, Off-Target site INS-OT.4 (of G000486) ([1]; LNP with 100 ng Cas9 mRNA and 14.68 nM gRNA, G000486 site INS-OT.4 (chr5: 91397023-91397043))",liver editing of the human TTR sequence (mean values) [2]
B1,0.57 nM,~97%,two,No indels were detected,1.43%,0.97%,97.33%,84.60%,,
B2,15.51 nM,~91%,one,No indels were detected,,,91.33%,89.50%,0.47%,
B3,,,,,,,,,,~60%
B4,,,,,,,,,,~60%
